Data from patent publication US20050148035A1 (Genentech, published 2005).

Columns and labels:
miniBP-3 fusion protein = biological target: T1, miniBP-3 fusion protein (human); assay: BIAcore competition, bp15 preincubated with miniBP-3 fusion, injected over immobilised biotinylated IGF-I
T1 construct: Uncleaved fusion, made in E. coli BL21 from pET21a and purified on IgG Sepharose

[1] = biological target: T2, native-sequence human IGFBP-3 (human, UniProt P17936 28-291); assay: BIAcore competition: bp15 (15 nM to 100 µM) pre-incubated 1 h with 20 nM IGFBP-3, injected over immobilised biotinylated IGF-I (bIGF-I, squares); blocked ligand IGF-I; one-site competition fit
T2 construct: also called wild-type IGFBP-3; full-length IGFBP-3

[2] = biological target: T2, native-sequence human IGFBP-3; assay: BIAcore competition: bp15 (15 nM to 100 µM) pre-incubated 1 h with 20 nM IGFBP-3, injected over immobilised biotinylated IGF-II (bIGF-II, triangles); blocked ligand IGF-II; one-site competition fit

B1: peptide bp15 (peptide)
peptide: SEEVCWPVAEWYLCN
notes: Identified by phage display (Lowman et al. 1998); also called bp15 peptide
binding result (miniBP-3 fusion protein): binds | IC50 [1]: 105 nM | IC50 [2]: 147 nM
